B1: baculovirus-expressed S. purpuratus katanin p80 subunit with N-terminal His(6) tag (other)
chain: HHHHHHMATKRAWKLQELVAHSSNVNCLALGPMSGRVMVTGGEDKKVNLWAVGKQNCIISLSGHTSPVDSVKFNSSEELVVAGSQSGTMKIYDLEPAKIVRTLTGHRNSIRCMDFHPFGEFVASGSTDTNVKLWDVRRKGCIYTYKGHSDQVNMIKFSPDGKWLVTASEDTTIKLWDLTMGKLFQEFKNHTGGVTGIEFHPNEFLLASGSSDRTVQFWDLETFQLVSSTSPGASAVRSISFHPDGSYLFCSSQDMLHAFGWEPIRCFDTFSVGWGKVADTVIASTQLIGASFNATNVSVYVADLSRMSTTGIAQEPQSQPSKTPSGGAEEVPSKPLTASGRKNFVRERPHTTSSKQRQPDVKSEPERQSPTQDEGVKDDDATDIKDPDSYAKIFSPKTRVDHSPERNAQPFPAPLDVPGAQEPEPFKHPPKPAAAAAVAPVSRAPAPSASDWQPAQANPAPNRVPAATKPVPAQEVAPSRKPDPISTIIPSDRNKPANLDMDAFLPPAHAQQAPRVNAPASRKQSDSERIEGLRKGHDSMCQVLSSRHRNLDVVRAIWTAGDAKTSVESVVNMKDQAILVDILNIMLLKKSLWNLDMCVVVLPRLKELLSSKYENYVHTSCACLKLILKNFTSLFNQNIKCPPSGIDITREERYNKCSKCYSYLIATRGYVEEKQHVSGKLGSSFRELHLLLDQLE
notes: Expressed from pFastBac HT in Sf9 cells; also called p80 katanin; recombinant p80
B2: baculovirus-expressed S. purpuratus katanin p60 subunit with N-terminal His(6) tag (enzyme)
chain: HHHHHHMSVDEICENTKMGREYALLGNYETSLVYYQGVLQQIQKLLTSVHEPQRKHQWQTIRQELSQEYEHVKNITKTLNGFKSEPAAPEPAPNHRAAPFSHHQHAAKPAAAEPARDPDVWPPPTPVDHRPSPPYQRAARKDPPRRSEPSKPANRAPGNDRGGRGPSDRRGDARSGGGGRGGARGSDKDKNRGGKSDKDKKAPSGEEGDEKKFDPAGYDKDLVENLERDIVQRNPNVHWADIAGLTEAKRLLEEAVVLPLWMPDYFKGIRRPWKGVLMVGPPGTGKTMLAKAVATECGTTFFNVSSASLTSKYHGESEKLVRLLFEMARFYAPSTIFIDEIDSICSKRGTGSEHEASRRVKSELLIQMDGVSGPSAGEESSKMVMVLAATNFPWDIDEALRRRLEKRIYIPLPEIDGREQLLRINLKEVPLADDIDLKSIAEKMDGYSGADITNVCRDASMMAMRRRIQGLRPEEIRHIPKEELNQPSTPADFLLALQKVSKSVGKEDLVKYMAWMEEFGSV
notes: Expressed from pFastBac HT in Sf9 cells; also called p60 katanin; recombinant p60

What was measured:
[1] = target: B2; assay: baculovirus co-expression, metal affinity purification, Coomassie staining
Text: We therefore sought to express the two subunits together and separately and then test their enzymatic activities.

[2] = target: the molecule itself; assay: rotary-shadowing electron microscopy of recombinant p60 on mica
Experimental: Proteins were adsorbed to mica, freeze-dried, and platinum replicated according to established procedures (Heuser (1989) *J. Electron Microsc. Technique* 13):, 244–263; Heuser (1983) *J. Mol. Biol.* 169: 155–195). Sample preparation and imaging were similar to that used in the imaging of NSF (Hanson et al. (1997) *Cell* 90: 523–535), except that mica flakes were washed with a buffer consisting of 10 mM K-HEPES (pH 7.5), 2 mM MgCl_2, 1 mM nucleotide (ATP or ATP-γ-S).

[3] = target: B1; assay: co-immunoprecipitation from insect cells coinfected with p60 and p80 baculoviruses
Experimental: Proteins bound to the resin were analyzed by SDS-PAGE followed by staining with Coomassie.
The immunoprecipitations were incubated at 4° C. for 1–2 hr, washed five times with 1 ml of ice-cold TBST, and eluted in SDS-containing sample buffer.

[4] = target: T1, in vitro translated S. purpuratus p60 katanin with 37 amino acid N-terminal S-Tag (Strongylocentrotus purpuratus, UniProt O61577 1-516); assay: co-translation in rabbit reticulocyte lysate, co-immunoprecipitation with anti-p60 antibody
T1 construct: Made in a rabbit reticulocyte coupled transcription-translation reaction; not shown: 37 amino acid N-terminal S-Tag from pCITE-4a+ (Novagen)
Experimental: (§1) In vitro synthesis of proteins directly from plasmid DNAs was accomplished using the Single Tube Protein System 2, T7 (Novagen). […] For immunoprecipitations, lysates were incubated on ice with Pansorbin (Calbiochem)-antibody complexes, washed in NET buffer (50 mM Tris-Cl (pH 7.5), 150 mM NaCl, 0.1% Nonidet P40, 1 mM EDTA (pH 8.0), 0.25% gelatin and 0.02% sodium azide), then resuspended in SDS-PAGE sample buffer. In vitro translation products in both the pellets and supernatants from the immunoprecipitations were resolved by SDS-PAGE, transferred to nitrocellulose, probed with S-protein HRP conjugate (Novagen) and detected by chemiluminescence.

[5] = target: T1, in vitro translated S. purpuratus p60 …; assay: co-translation in rabbit reticulocyte lysate, immunoprecipitation with anti-p60 antibody
Experimental: as §1

[6] = target: T2, native S. purpuratus katanin p80 subunit (sea urchin cytosol) (Strongylocentrotus purpuratus, UniProt O61585 1-690); assay: immunoprecipitation from sea urchin cytosol
T2 construct: Endogenous protein of sea urchin eggs
T2 sequence: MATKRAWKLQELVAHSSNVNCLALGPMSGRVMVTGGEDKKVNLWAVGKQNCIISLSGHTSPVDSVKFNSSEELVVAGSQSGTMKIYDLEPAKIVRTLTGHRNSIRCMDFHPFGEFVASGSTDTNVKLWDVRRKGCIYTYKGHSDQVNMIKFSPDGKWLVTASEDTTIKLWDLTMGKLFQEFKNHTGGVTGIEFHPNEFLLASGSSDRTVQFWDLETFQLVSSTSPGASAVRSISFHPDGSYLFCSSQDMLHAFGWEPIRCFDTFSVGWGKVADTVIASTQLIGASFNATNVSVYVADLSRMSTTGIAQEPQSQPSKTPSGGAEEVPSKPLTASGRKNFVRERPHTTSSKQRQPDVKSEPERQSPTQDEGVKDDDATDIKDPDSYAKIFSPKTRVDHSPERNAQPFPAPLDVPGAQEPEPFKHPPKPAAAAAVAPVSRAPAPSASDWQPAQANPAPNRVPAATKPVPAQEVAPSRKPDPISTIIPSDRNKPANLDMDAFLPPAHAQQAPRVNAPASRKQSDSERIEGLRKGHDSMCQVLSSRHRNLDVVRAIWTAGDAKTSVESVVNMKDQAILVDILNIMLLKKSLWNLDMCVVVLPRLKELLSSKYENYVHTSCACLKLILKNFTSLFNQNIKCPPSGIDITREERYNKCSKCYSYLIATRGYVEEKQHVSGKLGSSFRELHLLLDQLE

Question: B1 was tested. Which “p60:p80 molar ratio in the purified co-expressed protein” value [1] did it give?
Answer: ~0.9 mol p80 per mol p60

Question: Does B2 bind [2]?
Answer: binds

Question: Does B2 bind [3]?
Answer: binds

B3: p80 delta 1-302 (S. purpuratus p80 katanin with the entire WD40 domain deleted), in vitro translated with N-terminal S-Tag (other)
chain: TTGIAQEPQSQPSKTPSGGAEEVPSKPLTASGRKNFVRERPHTTSSKQRQPDVKSEPERQSPTQDEGVKDDDATDIKDPDSYAKIFSPKTRVDHSPERNAQPFPAPLDVPGAQEPEPFKHPPKPAAAAAVAPVSRAPAPSASDWQPAQANPAPNRVPAATKPVPAQEVAPSRKPDPISTIIPSDRNKPANLDMDAFLPPAHAQQAPRVNAPASRKQSDSERIEGLRKGHDSMCQVLSSRHRNLDVVRAIWTAGDAKTSVESVVNMKDQAILVDILNIMLLKKSLWNLDMCVVVLPRLKELLSSKYENYVHTSCACLKLILKNFTSLFNQNIKCPPSGIDITREERYNKCSKCYSYLIATRGYVEEKQHVSGKLGSSFRELHLLLDQLE
notes: the residues kept are derived from the deletion named; also called truncated p80; delta 1-302 derivative of p80; not shown: 37 amino acid N-terminal S-Tag from pCITE-4a+ (Novagen)
Question: Does B3 bind [4]?
Answer: binds

B4: p80 delta 303-690 (C-terminal truncation of S. purpuratus p80 katanin containing only the WD40 domain), in vitro translated with N-terminal S-Tag (other)
chain: MATKRAWKLQELVAHSSNVNCLALGPMSGRVMVTGGEDKKVNLWAVGKQNCIISLSGHTSPVDSVKFNSSEELVVAGSQSGTMKIYDLEPAKIVRTLTGHRNSIRCMDFHPFGEFVASGSTDTNVKLWDVRRKGCIYTYKGHSDQVNMIKFSPDGKWLVTASEDTTIKLWDLTMGKLFQEFKNHTGGVTGIEFHPNEFLLASGSSDRTVQFWDLETFQLVSSTSPGASAVRSISFHPDGSYLFCSSQDMLHAFGWEPIRCFDTFSVGWGKVADTVIASTQLIGASFNATNVSVYVADLSRMS
notes: the residues kept are derived from the deletion named; also called delta 303-690 derivative of p80; not shown: 37 amino acid N-terminal S-Tag from pCITE-4a+ (Novagen)
Question: Does B4 bind [5]?
Answer: no binding

B5: native S. purpuratus katanin p60 subunit (unfertilized egg extract / cytosol) (enzyme)
chain: MSVDEICENTKMGREYALLGNYETSLVYYQGVLQQIQKLLTSVHEPQRKHQWQTIRQELSQEYEHVKNITKTLNGFKSEPAAPEPAPNHRAAPFSHHQHAAKPAAAEPARDPDVWPPPTPVDHRPSPPYQRAARKDPPRRSEPSKPANRAPGNDRGGRGPSDRRGDARSGGGGRGGARGSDKDKNRGGKSDKDKKAPSGEEGDEKKFDPAGYDKDLVENLERDIVQRNPNVHWADIAGLTEAKRLLEEAVVLPLWMPDYFKGIRRPWKGVLMVGPPGTGKTMLAKAVATECGTTFFNVSSASLTSKYHGESEKLVRLLFEMARFYAPSTIFIDEIDSICSKRGTGSEHEASRRVKSELLIQMDGVSGPSAGEESSKMVMVLAATNFPWDIDEALRRRLEKRIYIPLPEIDGREQLLRINLKEVPLADDIDLKSIAEKMDGYSGADITNVCRDASMMAMRRRIQGLRPEEIRHIPKEELNQPSTPADFLLALQKVSKSVGKEDLVKYMAWMEEFGSV
notes: Endogenous protein of sea urchin eggs; also called 60 kDa polypeptide
Question: Does B5 bind [6]?
Answer: binds

Source: patent US6429304 (University of California, dated 2002)
